Source: patent publication US20100151496A1

Target: TRAP-220-EA-Nuc fusion protein
Test: cell-based or functional assay

## ERRα (estrogen-related receptor α) fused to the small β-galactosidase fragment (NHR-PK fusion), expressed in CHO cells
  EC50 of the small-molecule inverse agonist XCT790 for loss of the β-galactosidase complementation signal (ERRα fusion with coactivator-EA fusion) in CHO cells: 300 nM
  S/B (signal/background) of β-galactosidase enzyme fragment complementation in CHO cells; loss of signal with the inverse agonist XCT790: 3 fold
